Measured values reported in paper PMC10420310, “The Complex Proteolipidic Behavior of the SARS-CoV-2 Envelope Protein Channel: Weak Selectivity and Heterogeneous Oligomerization” (International Journal of Molecular Sciences, 2023).

Target: the molecule itself
Experiment: AUC; sedimentation velocity, E-TM at DPR 25 (lowest DPR tested) in 5 mM C14SB micelles, 50 mM Tris-HCl pH 7.3, 100 mM NaCl, 29.4% D2O, 20 °C, 50,000 rpm

B1: transmembrane domain of SARS-2 E corresponding to residues 7–38 (E-TM) (peptide)
chain: EETGTLIVNSVLLFLAFVVFLLVTLAILTALR
notes: SARS-CoV-2 envelope (E) protein, transmembrane domain, residues 7-38; monomer 3490 Da; also called E-TM 7–38
stoichiometry N: ~3.3
